From patent US20110053840A1 (MERCK SERONO S A, published 2011)

B1: HuPb28 (peptide)
peptide: Ac-MLIYYSSYL-NH2
notes: acetylated nonapeptide amide; also called HuPb28 peptide

What follows are binders tested against T1, HLA-DR2b molecules purified from L cells co-transfected with HLA-DRA and HLA-DRB1*1501 (human) (assay: competitive ELISA (DELFIA) on purified HLA-DR2b, displacement of biotinylated CLIP 97-120).
T1 construct: also called purified DR2b molecules
Excerpt: DR2b molecules were purified from L cells that had been co-transfected with HLA-DRA and HLA-DRB1*1501, by affinity chromatography using the HLA-DR-specific L243 antibody, as described in Weissert et al. (2001), MHC class II-regulated central nervous system autoaggression and T cell responses in peripheral lymphoid tissues are dissociated in myelin oligodendrocyte glycoprotein-induced experimental autoimmune encephalomyelitits, J. Immunol. […] The above publication is incorporated into the present application by reference. The binding assays were performed with a competitive ELISA based on a dissociation-enhanced lanthanide fluoroimmunoassay (Wallac, Turku, Finland). For the competitive ELISA, a 50 nM solution of DR2b molecules was incubated for 48 hours at 37° C. with 50 nM biotinylated CLIP 97-120 in the presence of 250 nM acetylated nonapeptide amide sublibrary or with various concentrations of competitor peptides ranging from 1 nM to 100 μM.
The affinity of each of these peptides for the HLA-DR2b molecule was measured using the ELISA.

| IC50 | Binder |
| --- | --- |
| > 100000 nM | Ac-GPPERLEFR-NH2 (acetylated nonapeptide amide) [HuPb19] |
| 1 nM | Ac-MIDWYSSWP-NH2 (acetylated nonapeptide amide) [HuPb34] |
| < 1 nM | B1 |
| > 100000 nM | Ac-KGESGFRDR-NH2 (acetylated nonapeptide amide) [HuPb17] |
| < 1 nM | Ac-LLYWYSSWP-NH2 (acetylated nonapeptide amide) [HuPb27] |
| < 1 nM | Ac-DIYWYSSWP-NH2 (acetylated nonapeptide amide) [HuPb32] |
| 1 nM | Ac-MIYWYSSWL-NH2 (acetylated nonapeptide amide) [HuPb20] |
| < 1 nM | Ac-MIYWYNSWL-NH2 (acetylated nonapeptide amide) [HuPb31] |
| 1 nM | Ac-MIYWYSSWD-NH2 (acetylated nonapeptide amide) [HuPb33] |
| 2 nM | Ac-LIYWYSSWL-NH2 (acetylated nonapeptide amide) [HuPb22] |
| 1 nM | Ac-MIYWYSSWI-NH2 (acetylated nonapeptide amide) [HuPb21] |
| < 1 nM | Ac-MIYWYSNWL-NH2 (acetylated nonapeptide amide) [HuPb30] |
| 2 nM | Ac-LILWYSSWL-NH2 (acetylated nonapeptide amide) [HuPb24] |
| 1 nM | Ac-LILWYSSWP-NH2 (acetylated nonapeptide amide) [HuPb26] |
| 2 nM | Ac-FILIYSNLF-NH2 (acetylated nonapeptide amide) [HuPb29] |
| 154 nM | Ac-LILYYYYYL-NH2 (acetylated nonapeptide amide) [HuPb23] |
| > 100000 nM | Ac-PYEAQELHE-NH2 (acetylated nonapeptide amide) [HuPb14] |
| 46700 nM | Ac-GPLPEHELL-NH2 (acetylated nonapeptide amide) [HuPb15] |
| > 100000 nM | Ac-WGLPEHLER-NH2 (acetylated nonapeptide amide) [HuPb11] |
| 33900 nM | Ac-WPLPLLEER-NH2 (acetylated nonapeptide amide) [HuPb10] |
| 43800 nM | Ac-GSLPRHLFR-NH2 (acetylated nonapeptide amide) [HuPb18] |
